Source: US20230348564A1, “ANTI-CANCER PROTEINS” (UNICHEM LABORATORIES LTD, priority 2020, published 2023)

What was measured:
IOMM-Lee cell line = assay: cell cycle distribution analysis by Propidium Iodide (PI) staining; format: cell-based, Human; conditions: 1 μg/mL-500 μg/mL
Protocol: The evaluation of pro-apoptotic effect of SEQ ID NO. 2 in brain tumor cell lines U251MG & IOMM Lee was conducted. The cells were treated with SEQ ID NO. 2 at various concentrations around IC50 values. Resultant effect on apoptosis was determined via externalization of Phosphatidyl Serine (PS) on cell membrane by Annexin-V staining, mitochondrial membrane depolarization by JC-1 staining and cell cycle distribution analysis by Propidium Iodide (PI) staining. Increase in apoptotic markers in U251MG & IOMM-Lee cell lines reflected the pro-apoptotic potential of SEQ ID NO. 2 in brain tumor. • Externalization of PS on cell membrane by Annexin-V staining on U251MG cell line: SEQ ID NO.

Notch-1 = assay: biomarker levels in IOMM-Lee by ELISA; format: cell-based, Human; conditions: 1 μg/mL-80 μg/mL, 48 h
Description: Effect of SEQ ID No 2 on the expression of following 7 biomarkers were estimated in Human Meningioma cell line (IOMM-Lee) using multiplex analysis: TNF-alpha, VEGF, VEGFR2, HGF, HGFR/c-MET, PDGF-BB, and Contactin-1. Levels of another marker, Notch-1 were also estimated by ELISA in the same cell line. These 8 biomarkers play very crucial role in the pathogenesis and progression of Brain Tumor. […] Supernatants were collected and the levels of these 8 markers were investigated.

[1] = test system: VEGF release in MDA-MB-231 cells; assay: VEGF secretion in cancer cells (Human VEGF ELISA); format: cell-based; conditions: 24 h
Protocol: The cell lines were maintained in DMEM+10% […] (heat inactivated) at 37° C. with 5% CO2, and 95% humidity. Cells were counted and plated in 6-well plates for 24 h at a density of 0.5×10^6 cells/well. The cells were incubated overnight under growth conditions as described above so as to allow cell recovery and exponential growth. Cells were treated with each test item at different concentrations for 24h in serum free media. Doxorubicin was used as positive control. Secreted levels of VEGF were determined in supernatants after 24 hours using Human VEGF ELISA kit (R&D systems) as per manufacturer's protocol. Change in VEGF levels corresponding to each treatment was calculated using the following formula: […]

[2] = test system: PANC-1 (Pancreas/duct epithelioid carcinoma); assay: Xenograft study; format: in vivo, mice; conditions: PANC-1 xenograft, IP
Description: (§1) The Xenograft models used were HT-29, KB, PA-1, MCF-7, PANC-1, T24 and MDA-MB-231. The basic study design for the Xenograft study was as follows: • 1. Cell maintenance and cell suspension preparation • 2. Aseptic injection of tumor cell suspension in the donor animal • 3. Randomization of animals in respective groups • 4. IP dosing of test items in predetermined doses • 5. IP administration of standard • 6. After completion of dosing period. • 7. The Tumor volume recording weekly twice while body weight and clinical signs daily.

[3] = test system: MDA-MB-231 (Mammary gland/breast adenocarcinoma); assay: Xenograft study; format: in vivo, mice; conditions: MDA-MB-231 xenograft, IP
Description: as §1

[4] = test system: T24 (Urinary bladder/transitional cell carcinoma); assay: Xenograft study; format: in vivo, mice; conditions: IP
Description: as §1

KB (Cervical cancer) = assay: Xenograft study; format: in vivo, mice; conditions: IP
Description: as §1

[5] = test system: HT-29 (Colorectal cancer); assay: Xenograft study; format: in vivo, mice
Description: as §1

[6] = test system: PA-1 (Ovary teratocarcinoma); assay: Xenograft study; format: in vivo, mice; conditions: PA-1 xenograft, IP
Description: as §1

MCF-7 (Breast cancer) = assay: Xenograft study; format: in vivo, mice; conditions: MCF-7 xenograft, IP
Description: as §1

B1: SEQ ID NO. 2: recombinant lectin; variant of the S. rolfsii lectin amino acid sequence (reported as Rec-2 in WO 2010/095143) (protein)
chain: TYKITVRVYQTNPDAFFHPVEKTVWKYANGGTWTITDDQHVLTMGGSGTSGTLRFHADNGESFTATFGVHNYKRWCDIVTNLAADETGMVINQQYYSQKNREEARERQLSNYQVKNAKGRNFQIVYTEAEGNDLHANLIIG
modifications: In vitro synthesis
increase in apoptotic population; Sub (G0/G1) as compared to Control (Untreated) (IOMM-Lee cell line): 1.1-35.3 fold
Percentage inhibition on levels of Notch-1 (Notch-1): 81.2%-99.8%
Average absorbance at 450 nM ([1]; 2.5 μg/mL): 0.970
Percentage decrease in VEGF levels ([1]; 2.5 μg/mL): −25.0%
VEGF level ([1]; 2.5 μg/mL): 579.3 pg/mL
Average absorbance at 450 nM ([1]; 5 μg/mL): 0.763
Percentage decrease in VEGF levels ([1]; 5 μg/mL): 4.8%
VEGF level ([1]; 5 μg/mL): 441.0 pg/mL
Average absorbance at 450 nM ([1]; 10 μg/mL): 1.072
Percentage decrease in VEGF levels ([1]; 10 μg/mL): −39.8%
VEGF level ([1]; 10 μg/mL): 647.5 pg/mL
Average absorbance at 450 nM ([1]; 20 μg/mL): 1.552
Percentage decrease in VEGF levels ([1]; 20 μg/mL): −108.8%
VEGF level ([1]; 20 μg/mL): 967.3 pg/mL
Average absorbance at 450 nM ([1]; 80 μg/mL): 2.222
Percentage decrease in VEGF levels ([1]; 80 μg/mL): −205.2%
VEGF level ([1]; 80 μg/mL): 1413.9 pg/mL
Maximum Tumor Growth Inhibition (%) [2]: 39.15%
Tumor Volume (mm^3) (Mean ± SEM) [2]: 721.17 ± 194.63 mm^3
Maximum Tumor Growth Inhibition (%) [3]: 35.21%
Tumor Volume (mm^3) (Mean ± SEM) [3]: 834.80 ± 126.95 mm^3
Maximum Tumor Growth Inhibition (%) [4]: 36.52%
Tumor Volume (mm^3) (Mean ± SEM) [4]: 551.06 ± 10.02 mm^3
Maximum Tumor Growth Inhibition (%) (KB (Cervical cancer)): 60.49%
Tumor Volume (mm^3) (Mean ± SEM) (KB (Cervical cancer)): 782 ± 92 mm^3
tumor volume in comparison with the vehicle control group, in words ([5]; 20 mg/Kg and 30 mg/Kg body weight (daily)): significant decrease in tumor volume
Maximum Tumor Growth Inhibition (%) ([5]; HT-29 xenograft, IP): 56.62%
Tumor Volume (mm^3) (Mean ± SEM) ([5]; HT-29 xenograft, IP): 1702 ± 274 mm^3
Maximum Tumor Growth Inhibition (%) [6]: 62.15%
Tumor Volume (mm^3) (Mean ± SEM) [6]: 1050 ± 132 mm^3
Maximum Tumor Growth Inhibition (%) (MCF-7 (Breast cancer)): 69.04%
Tumor Volume (mm^3) (Mean ± SEM) (MCF-7 (Breast cancer)): 1256 ± 132 mm^3
